# Experimental data from US20090175872A1, “Treatment of Conditions Involving Demyelination” (BIOGEN Idec MA Inc., priority 2005, published 2009).
# Tests used:
# [1] = system: RhoA-GTP; test: RhoA-GTP levels in oligodendrocyte lysates (western blotting); type: cell-based, rat; conditions: versus corresponding control, FIG. 9A
# Source text: A strong candidate signaling pathway that is implicated in the control of oligodendrocyte differentiation is the Rho family of GTPases. Rho GTPases regulate cellular morphology, and reduced RhoA-GTP amounts are required for oligodendrocyte differentiation. See Liang, X, et al., J. Neurosci. 24:7140-7149 (2004). To determine whether Sp35 signals through the RhoA pathway, RhoAGTP levels in cell lysates of oligodendrocytes treated with Sp35-Fc were compared with levels in the corresponding control via western blotting.
# [2] = system: mature oligodendrocytes; test: Mature oligodendrocyte survival and MBP expression; type: cell-based, rat
# Description: Mature oligodendrocytes have a half-life in vitro of about 48 to 72 hours, with cells typically undergoing apoptosis after 72 hours. […] MBP expression was monitored as a marker for mature ologodendrocytes.
# [3] = system: cuprizone-treated mice; test: Cuprizone demyelination model, stereotactic injection into corpus callosum; type: in vivo; conditions: injected at 2, 2.5 and 3 weeks of cuprizone feeding
# Source text: Adult wild-type C57B1/6 male mice were fed cuprizone (0.2% milled with ground mouse chow by weight) for 6 weeks to induce demyelination within the corpus callosum. Sp35-Fc was stereotactically injected into the demyelinating corpus callosum at 2, 2.5, and 3 weeks of cuprizone feeding. Control mice were stereotactically injected at the same intervals with sterilized media containing no Sp35-Fc. After 6 weeks of cuprizone feeding, the mice were returned to a normal diet for 2, 4 and 6 weeks (ground mouse chow only) to allow remyelination.
# The cuprizone-treated mice were anesthetized with ketamine (80 mg/kg body weight) and xylazine (10 mg/kg body weight) and positioned in an immobilization apparatus designed for stereotactic surgery (David Kopf Instruments). The scalp was opened and the sterile compounds injected (1 μM in […] of HBSS) unilaterally into the acutely demyelinated corpus callosum of the wild-type recipient mice with a […] Hamilton syringe using stereotactic coordinates of 0.7 mm posterior and 0.3 mm lateral to bregrna at a depth of 1.7 mm (Messier et al., Pharmacol. Biochem. Behav. 63(2): 313-18 (1999)). Additionally, control recipient mice were stereotactically injected with HBSS containing no compounds. The opening in the skull was filled with Gelfoam, and the area was swabbed with penicillin and streptomycin (Gibco) and the wound was sutured. […]
# [4] = system: differentiated PC12 cells; test: Apoptotic cell death in differentiated PC12 cells after NGF withdrawal (cell death ELISA / TUNEL); type: cell-based
# [5] = system: spinal cord injury in Long Evans rats; test: Spinal cord injury (dorsal hemisection), intrathecal mini-osmotic pump; type: in vivo, rat
# Description: Spinal cord injury was induced in adult female Long Evans rats (190-210 g; Charles River). A dorsal hemisection was performed at T6/T7, completely interrupting the main dorsomedial and the minor dorsolateral corticospinal tract (CST) components. The cord was sterotaxically transected at a depth of 1.8 mm from the surface using a microscalpel. […] Postoperative care comprised analgesia (Buprenorphine/Buprenex, Reckitt Benckiset Healthcare Ltd., 0.05 mg/kg subcutaneously) every 8-12 hours for 3 days and antibiotic treatment (ampicillin, Bristol Myers Squibb, 100 mg/kg subcutaneously twice daily) for 7 days after surgery. Bladders were expressed manually twice a day for the duration of the study (4 weeks) or until return of function. On completion of the study, rats were anesthetized and trans-cardially perfused with heparinized saline followed by 4% paraformaldehyde (PFA). The spinal cords were removed, embedded in paraffin, and 10 μm sections were cut from for histological analysis.
# To quantify apoptotic cell death after SCI, animals were euthanized 3 or 7 days after SCI and stained using anti-activated-Caspase-3 antibody (Cell Signaling Technologies) and TUNEL staining (Promega). The sections were also stained with anti-NeuN antibody (Chemicon) and anti-CC1 antibody (Calbiochem) to identify neurons and oligodendrocytes, respectively.
# [6] = target: T1, human ErbB2 (Homo sapiens, UniProt P04626); test: AP-Sp35 binding to ErbB2-transfected CHO cells; conditions: pre-incubation with soluble fusion protein, FIG. 17B
# T1 construct: expressed in transfected cells; host or cells: CHO cells, transient transfection with Fugene 6, assayed after 48 hours
# Description: ErbB2 is a member of the type I family of transmembrane receptor tyrosine kinases. The family comprises four members: epidermal growth factor receptor (EGFR or ErbB1), ErB2 (HER2 or neu), ErbB3 and ErbB4. Oligodendrocyte differentiation is positively regulated by the ErbB2 receptor tyrosine kinase. To examine the potential interaction between Sp35 and ErB2, an N-terminal AP-tagged human Sp35 protein was tested for binding to human ErbB2-transfected Chinese hamster ovary (CHO) cells.
# 90% confluent CHO cells were transfected with various combinations of human ErbB2 vector expression plasmid using Fugene 6 reagents (Roche). After 48 hours, the transfected cells were washed with HBH (Hank's balanced salt solution, 1 mg/ml BSA, 20 mM HEPES (pH 7.0)) and incubated for 1.5 hours at 23° C. or […] with 4 μg/ml of AP-Sp35 (human placental alkaline phosphotase (AP) with an N-terminal six histidine tag, fused to the C-terminus of human Sp35 (residues 34-532), as described in Mi et al., Nat. Neurosci. 7:221-228 (2004)) or control AP-protein in HBH. Bound AP-Sp35 was detected directly or following detergent lysis of the cells by ELISA and enzymatic activity was quantified with 4-NPP as described in Mi et al. Nat. Neurosci. 7:221-228 (2004).
# In order to identify the Sp35 domain that binds ErbB2, soluble truncated forms of AP-Sp35 were tested for binding. Both the LRR domain of Sp35 (amino acids 34-417 of SEQ ID NO:2) (AP-Sp35-LRR) and the extracellular domain of Sp35 (amino acids 34-532 of SEQ ID NO:2) (AP-Sp35) bound to ErbB2 expressed in CHO cells. […] FIGS. 17B and 17C.
# [7] = system: Caspase-3; test: Caspase-3 activation in differentiated PC12 cells after NGF withdrawal (Caspase 3/7 Glo); type: cell-based; conditions: 18 hours after removal of NGF
# Description: PC 12 cells (Neuroscreen) were differentiated in RPMI-1640 medium supplemented with 5% fetal bovine serum, 10% horse serum, 2 mM glutamine, 100 U/ml penicillin and […] streptomycin containing 200 ng/ml NGF for 7 days. For experiments, the culture media was replaced with NGF-free culture media containing Sp35-Fc, human IgG as a negative control (0.1-10 μM), or zVAD as a positive control (0.1 μM). 18 hours after NGF withdrawal, activated Caspase-3 was quantified using the Caspase 3/7 Glo kit (Promega) according to the manufacturer's instructions. 42 hours after NGF withdrawal, apoptotic cell death was quantified using a cell death detection ELISA kit (Roche) according to the manufacturer's instructions.
molecule,measurement,setting,value
"Sp35-Fc: extra-cellular portion of human Sp35 (residues 1-532) fused to the hinge and Fc region of human IgG1 (protein, left off: a dimerising Fc or GST, extra-cellular portion of human Sp35 (residues 1-532) fused to the hinge and Fc region of human IgG1) TGCPPRCECSAQDRAVLCHRKRFVAVPEGIPTETRLLDLGKNRIKTLNQDEFASFPHLEELELNENIVSAVEPGAFNNLFNLRTLGLRSNRLKLIPLGVFTGLSNLTKLDISENKIVILLDYMFQDLYNLKSLEVGDNDLVYISHRAFSGLNSLEQLTLEKCNLTSIPTEALSHLHGLIVLRLRHLNINAIRDYSFKRLYRLKVLEISHWPYLDTMTPNCLYGLNLTSLSITHCNLTAVPYLAVRHLVYLRFLNLSYNPISTIEGSMLHELLRLQEIQLVGGQLAVVEPYAFRGLNYLRVLNVSGNQLTTLEESVFHSVGNLETLILDSNPLACDCRLLWVFRRRWRLNFNRQQPTCATPEFVQGKEFKDFPDVLLPNYFTCRRARIRDRKAQQVFVDEGHTVQFVCRADGDPPPAILWLSPRKHLVSAKSNGRLTVFPDGTLEVRYAQVQDNGTYLCIAANAGGNDSMPAHLHVRSYSPDWPHQPNKTFAFISNQPGE",reduction in RhoA-GTP,[1],threefold reduction
same,survival rate for mature oligodendrocytes,"[2]; 10 μg/ml for 5 days, cell viability staining, versus control-Fc",significantly increased survival rate
same,increase in MBP protein expression,"[2]; cell staining and Western blot with anti-MBP antibody, versus control-Fc treated cells",approximately 3 fold
same,axon myelination by IHC using anti-MBP protein antibody or luxol fast blue,[3],increased
same,mature oligodendrocyte survival (CC1 antibody staining),[3]; FIG. 12,increased mature oligodendrocyte survival
same,cells undergoing apoptosis (TUNEL assay),"[4]; 18 hours after NGF withdrawal, versus control, FIG. 13 legend",fewer cells undergoing apoptosis
same,cell death (TUNEL ELISA),"[4]; 42 hours after withdrawal of NGF, FIG. 13",significantly reduced cell death
same,number of activated-Caspase-3-positive neurons and oligodendrocytes versus controls,"[5]; 3 days after SCI, 0.25 μl/h of 25 μM intrathecal",significantly smaller
same,neuron and oligodendrocyte survival in tissue surrounding the lesion site versus controls,"[5]; four weeks after SCI, anti-βIII-tubulin and anti-O4 staining",more neurons and oligodendrocytes survived
same,AP-Sp35 binding to ErbB2-expressing cells after pre-incubation,[6],blocked
same,Caspase-3 activation,[7]; 0.1 μM,reduced Caspase-3 activation
same,Caspase-3 activation compared with zVAD (0.1 μM),"[7]; 1 or 10 μM, dose-dependent, FIG. 14",as effective as a neuroprotective dose of the caspase inhibitor zVAD
